Results on 1 substance are retold here after PMC2048530.

This assay addresses DC-SIGN-Fc (human) (UniProt Q9NNX6).
Chain of UniProt Q9NNX6 (Q9NNX6 59-404): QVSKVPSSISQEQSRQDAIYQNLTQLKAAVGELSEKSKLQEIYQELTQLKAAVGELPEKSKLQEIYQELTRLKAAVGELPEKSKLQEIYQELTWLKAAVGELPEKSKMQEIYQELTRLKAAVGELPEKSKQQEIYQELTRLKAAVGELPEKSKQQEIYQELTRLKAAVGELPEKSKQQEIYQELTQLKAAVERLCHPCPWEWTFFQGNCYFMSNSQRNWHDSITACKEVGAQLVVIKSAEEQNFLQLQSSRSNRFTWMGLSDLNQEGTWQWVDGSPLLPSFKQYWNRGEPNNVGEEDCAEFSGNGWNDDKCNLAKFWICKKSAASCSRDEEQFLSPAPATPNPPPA

As for “HIV-1 JR-FL gp120 (recombinant monomeric gp120; mock-treated form M-gp120) (natural protein)”, the IL-10 induction in iMDDCs by JR-FL gp120 (3 μg/ml) at 24 h after pre-incubation of the cells with anti-DC-SIGN mAb AZN-D1 (40 μg/ml); DC-SIGN here is the whole receptor on MDDCs is 50 % reduction.
